Molecular target: SARS-CoV-2 prefusion-stabilized trimeric spike ectodomain (S2Pecto) (SARS-CoV-2) (UniProt P0DTC2)
Assay: ELISA on coated antigen

rCR3022 (recombinant form of the cross-reactive SARS-CoV SRBD mAb CR3022) (antibody)
EC50: 0.0102 µg/mL

Reference: patent publication US20210300999A1
